Biological target: Class C scavenger receptor of Marsupenaeus japonicus (MjSRC), native protein of hemocytes (Marsupenaeus japonicus (endogenous in hemocytes))
Experiment: cross-linking; hemocytes collected 30 min after injection of WSSV or PBS, 5 mM BS3 at 4°C for 1 h in PBS pH 8.0, quenched with Tris-HCl; SDS-PAGE and western blotting with anti-MjSRC sera; oligomer size by molecular mass

Substance: Class C scavenger receptor of Marsupenaeus japonicus (MjSRC), native protein of hemocytes (from UniProt A0A1L2DC21 1-692)
- stoichiometry N: 3
